{"source": "paper PMC3441139", "biological_target": "N-terminal EGFP fusion to zebrafish P2X4 crystallized construct (EGFP-ΔP2X4-A) (Danio rerio) (UniProt F8W463)", "assay": "SEC", "data": [{"substance": "N-terminal EGFP fusion to zebrafish P2X4 crystallized construct (EGFP-ΔP2X4-A) (from UniProt F8W463 1-389) (receptor)", "values": [{"measurement": "stoichiometry N", "result": 3}]}]}
